# Reference: US20150299268A1
# Experiments:
# gp120-JR48.1-ScFV = assay: ELISA
# BaL-gp120 (HIV-1 BaL) [1] = assay: ELISA
# FLSC R/T (HIV-1) = FLSC R/T (HIV-1) (UniProt P01730); assay: ELISA
# gp120-b12-ScFV = assay: ELISA
# gp120-JR4-ScFV = assay: ELISA
# gp120-VRC01-ScFV = assay: ELISA
# core-V3-D7 (HIV-1) = assay: capture ELISA
# [2] = biological target: BaL-gp120-E47A (HIV-1 BaL); assay: capture ELISA
# [3] = biological target: BaL-gp120-V68A (HIV-1 BaL); assay: capture ELISA
# [4] = biological target: BaL-gp120-W45A (HIV-1 BaL); assay: capture ELISA
# [5] = biological target: BaL-gp120-K487AK490A (HIV-1 BaL); assay: capture ELISA
# BaL-gp120 (HIV-1 BaL) [6] = assay: capture ELISA
# [7] = biological target: BaL-gp120-P76A (HIV-1 BaL); assay: capture ELISA
# [8] = biological target: BaL-gp120-W69A (HIV-1 BaL); assay: capture ELISA
# [9] = biological target: BaL-gp120-Y40A (HIV-1 BaL); assay: capture ELISA
# [10] = biological target: BaL-gp120-Y61A (HIV-1 BaL); assay: capture ELISA
# [11] = biological target: BaL-gp120-E31A (HIV-1 BaL); assay: capture ELISA
# [12] = biological target: BaL-gp120-E47AE91A (HIV-1 BaL); assay: capture ELISA
# [13] = biological target: BaL-gp120-F53A (HIV-1 BaL); assay: capture ELISA
# [14] = biological target: BaL-gp120-S334A (HIV-1 BaL); assay: capture ELISA
# [15] = biological target: BaL-gp120-mV3 (HIV-1 BaL); assay: capture ELISA
# [16] = biological target: BaL-gp120-D62A (HIV-1 BaL); assay: capture ELISA
# [17] = biological target: BaL-gp120-S158A (HIV-1 BaL); assay: capture ELISA
# [18] = biological target: BaL-gp120-D57AD78A (HIV-1 BaL); assay: capture ELISA
# [19] = biological target: BaL-gp120-D57A (HIV-1 BaL); assay: capture ELISA
# [20] = biological target: BaL-gp120-R476A (HIV-1 BaL); assay: capture ELISA
# [21] = biological target: BaL-gp120-R58AK59A (HIV-1 BaL); assay: capture ELISA
# [22] = biological target: BaL-gp120-Y39A (HIV-1 BaL); assay: capture ELISA
# [23] = biological target: BaL-gp120-H105A (HIV-1 BaL); assay: capture ELISA
# [24] = biological target: BaL-gp120-E492A (HIV-1 BaL); assay: capture ELISA
# [25] = biological target: BaL-gp120-E32A (HIV-1 BaL); assay: capture ELISA
# [26] = biological target: BaL-gp120-D78A (HIV-1 BaL); assay: capture ELISA
# [27] = biological target: BaL-gp120-dV3 (HIV-1 BaL); assay: capture ELISA
# [28] = biological target: BaL-gp120-G495A (HIV-1 BaL); assay: capture ELISA
# FLSC (HIV-1) = FLSC (HIV-1) (UniProt P01730); assay: capture ELISA
# [29] = biological target: BaL-gp120-K46A (HIV-1 BaL); assay: capture ELISA
# [30] = biological target: BaL-gp120-W35A (HIV-1 BaL); assay: capture ELISA
# [31] = biological target: BaL-gp120-P493A (HIV-1 BaL); assay: capture ELISA
# [32] = biological target: BaL-gp120-T162A (HIV-1 BaL); assay: capture ELISA
# [33] = biological target: BaL-gp120-T455A (HIV-1 BaL); assay: capture ELISA
# [34] = biological target: BaL-gp120-L494A (HIV-1 BaL); assay: capture ELISA
# [35] = biological target: BaL-gp120-E106AD107A (HIV-1 BaL); assay: capture ELISA
# [36] = biological target: BaL-gp120-V44A (HIV-1 BaL); assay: capture ELISA
# [37] = biological target: BaL-gp120-K500A (HIV-1 BaL); assay: capture ELISA
# [38] = biological target: BaL-gp120-K33A (HIV-1 BaL); assay: capture ELISA
# [39] = biological target: BaL-gp120-V496A (HIV-1 BaL); assay: capture ELISA
# core-D7 (HIV-1) = assay: capture ELISA
# [40] = biological target: BaL-gp120-I423A (HIV-1 BaL); assay: capture ELISA
# core-V1V2-D7 (HIV-1) = assay: capture ELISA
# [41] = biological target: BaL-gp120-I491A (HIV-1 BaL); assay: capture ELISA
# [42] = biological target: BaL-gp120-dV1 (HIV-1 BaL); assay: capture ELISA
# [43] = biological target: BaL-gp120-I420R (HIV-1 BaL); assay: capture ELISA
# [44] = biological target: BaL-gp120-D57AD62A (HIV-1 BaL); assay: capture ELISA
# [45] = biological target: BaL-gp120-D368R (HIV-1 BaL); assay: capture ELISA
# [46] = biological target: BaL-gp120-P498A (HIV-1 BaL); assay: capture ELISA
# [47] = biological target: BaL-gp120-T499A (HIV-1 BaL); assay: capture ELISA
# [48] = biological target: BaL-gp120-dV2 (HIV-1 BaL); assay: capture ELISA
# [49] = biological target: BaL-gp120-S200A (HIV-1 BaL); assay: capture ELISA
# [50] = biological target: BaL-gp120-T303A (HIV-1 BaL); assay: capture ELISA
# [51] = biological target: BaL-gp120-R476AR480A (HIV-1 BaL); assay: capture ELISA
# [52] = biological target: BaL-gp120-V75A (HIV-1 BaL); assay: capture ELISA
substance,measurement,setting,value
2G12 (antibody),Fold of Ab needed for ELISA binding OD equal to half max on gp120,gp120-JR48.1-ScFV,0.58 fold
same,Fold of Ab needed for ELISA binding OD equal to half max on gp120,BaL-gp120 (HIV-1 BaL) [1],1 fold
same,Fold of Ab needed for ELISA binding OD equal to half max on gp120,FLSC R/T (HIV-1),0.91 fold
same,Fold of Ab needed for ELISA binding OD equal to half max on gp120,gp120-b12-ScFV,0.56 fold
same,Fold of Ab needed for ELISA binding OD equal to half max on gp120,gp120-JR4-ScFV,0.61 fold
same,Fold of Ab needed for ELISA binding OD equal to half max on gp120,gp120-VRC01-ScFV,0.66 fold
same,% Binding,core-V3-D7 (HIV-1),86%
same,% Binding,[2],96%
same,% Binding,[3],82%
same,% Binding,[4],92%
same,% Binding,[5],83%
same,% Binding,BaL-gp120 (HIV-1 BaL) [6],100%
same,% Binding,[7],90%
same,% Binding,[8],87%
same,% Binding,[9],93%
same,% Binding,[10],81%
same,% Binding,[11],80%
same,% Binding,[12],86%
same,% Binding,[13],99%
same,% Binding,[14],16%
same,% Binding,[15],100%
same,% Binding,[16],86%
same,% Binding,[17],80%
same,% Binding,[18],95%
same,% Binding,[19],91%
same,% Binding,[20],98%
same,% Binding,[21],88%
same,% Binding,[22],89%
same,% Binding,[23],89%
same,% Binding,[24],93%
same,% Binding,[25],93%
same,% Binding,[26],87%
same,% Binding,[27],100%
same,% Binding,[28],93%
same,% Binding,FLSC (HIV-1),104%
same,% Binding,[29],92%
same,% Binding,[30],99%
same,% Binding,[31],93%
same,% Binding,[32],87%
same,% Binding,[33],87%
same,% Binding,[34],79%
same,% Binding,[35],79%
same,% Binding,[36],93%
same,% Binding,[37],92%
same,% Binding,[38],83%
same,% Binding,[39],96%
same,% Binding,core-D7 (HIV-1),100%
same,% Binding,[40],94%
same,% Binding,core-V1V2-D7 (HIV-1),100%
same,% Binding,[41],92%
same,% Binding,[42],93%
same,% Binding,[43],93%
same,% Binding,[44],105%
same,% Binding,[45],82%
same,% Binding,[46],93%
same,% Binding,[47],100%
same,% Binding,[48],82%
same,% Binding,[49],92%
same,% Binding,[50],88%
same,% Binding,[51],83%
same,% Binding,[52],89%
PG9 (antibody),Fold of Ab needed for ELISA binding OD equal to half max on gp120,gp120-JR48.1-ScFV,0.07 fold
same,Fold of Ab needed for ELISA binding OD equal to half max on gp120,BaL-gp120 (HIV-1 BaL) [1],1 fold
same,Fold of Ab needed for ELISA binding OD equal to half max on gp120,FLSC R/T (HIV-1),8.02 fold
same,Fold of Ab needed for ELISA binding OD equal to half max on gp120,gp120-b12-ScFV,0.06 fold
same,Fold of Ab needed for ELISA binding OD equal to half max on gp120,gp120-JR4-ScFV,0.02 fold
same,Fold of Ab needed for ELISA binding OD equal to half max on gp120,gp120-VRC01-ScFV,0.09 fold
